According to patent publication US20150344570A1 (published 2015):

T1: human FcγRIIb extracellular domain with C-terminal His tag (human, UniProt P31994 43-217)
T1 construct: extracellular domain; also called FcgRIIb; 2b; not shown: His tag attached to the C terminus
T1 sequence (looked up): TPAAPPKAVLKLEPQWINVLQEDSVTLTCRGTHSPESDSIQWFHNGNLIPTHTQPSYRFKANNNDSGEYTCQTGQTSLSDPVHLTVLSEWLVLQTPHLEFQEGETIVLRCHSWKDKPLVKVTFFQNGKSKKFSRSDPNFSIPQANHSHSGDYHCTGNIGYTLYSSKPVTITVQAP

T2: FcγRIIa H (human, UniProt P12318 34-217)
T2 construct: extracellular domain; also called FcγRIIa type H; 2aH; not shown: His tag at the C terminus
T2 sequence (looked up): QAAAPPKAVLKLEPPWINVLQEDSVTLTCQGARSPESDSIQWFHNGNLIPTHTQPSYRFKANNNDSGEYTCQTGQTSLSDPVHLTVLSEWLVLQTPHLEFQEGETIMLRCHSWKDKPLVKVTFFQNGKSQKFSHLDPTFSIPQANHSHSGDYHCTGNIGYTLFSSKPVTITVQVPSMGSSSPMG

T3: FcγRIIb (human, UniProt P31994 43-217)
T3 construct: extracellular domain; also called 2b; not shown: His tag at the C terminus
T3 sequence (looked up): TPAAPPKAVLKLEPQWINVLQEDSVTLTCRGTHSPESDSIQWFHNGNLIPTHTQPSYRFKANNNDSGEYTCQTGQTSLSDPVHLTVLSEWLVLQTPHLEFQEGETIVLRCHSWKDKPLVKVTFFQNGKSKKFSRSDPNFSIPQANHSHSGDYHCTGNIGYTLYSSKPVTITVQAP


How the values were obtained:
[1] = molecular target: T1, human FcγRIIb extracellular domain with …; assay: SPR (Biacore T100), antibody captured on antigen peptide chip, FcγRIIb as analyte; relative binding
Procedure: (§1) Analysis of interaction between objective antibody and the FcγR was carried out using Biacore T100 (GE Healthcare). HBS-EP+ (GE Healthcare) was used as the running buffer, and the measurement temperature was set to 25° C. Chips produced by immobilizing the antigen peptide by the amine coupling method to a Series S Sencor Chip CM5 (GE Healthcare), or alternatively, chips produced by allowing preliminarily biotinylated antigen peptides to interact with and immobilize onto a Series S Sensor Chip SA (certified) (GE Healthcare) were used. Antibodies of interest were captured onto an antigen peptide-immobilized chip, and allowed to interact to each FcγR diluted with running buffer. To regenerate and repeatedly use the chip, the antibodies captured on the chip were washed off by reacting 10 mM glycine-HCl, pH 1.5.

FcγRIIa H = molecular target: T2, FcγRIIa H; assay: SPR (Biacore), antibody captured, FcγR as analyte; binding relative to GpH7-A5/GpH7-B3/GpL16-k0 = 100
Procedure: (§2) The heterodimerized antibodies He Abs in which one of the H chains was introduced with an alteration were assayed for their binding activities to each activating FcγR and inhibitory FcγR according to the method described in Example 4. […] The activating FcγRs in FIGS. 26, 27, 28, and 29 are FcγRIa, FcγRIIa (R), FcγRIIa (H), and FcγRIIIa, respectively.
as §1

FcγRIIb = molecular target: T3, FcγRIIb; assay: as above
Procedure: as §2, §1

Ho/Con_2b [1]	He/Con_2aH (FcγRIIa H)	He/Con_2b (FcγRIIb)	Binder
171 % of control GpH7-B3/GpL16-k0 (=100)	–	–	GpH7-B3 variant L328_06M/GpL16-k0 (Ho Ab) (antibody, human IgG1, kappa, Anti-glypican-3 IgG1; mutation in both H chains; also called L328M homodimerized antibody) heavy: not shown light: DIVMTQSPLSLPVTPGEPASISCQASESLVHSNRNTYLHWYLQKPGQSPQLLIYKVSNRFSGVPDRFSGSGSGTDFTLKISRVEAEDVGVYYCSQNTHVPPTFGQGTKVEIERTVAAPSVFIFPPSDEQLKSGTASVVCLLNNFYPREAKVQWKVDNALQSGNSQESVTEQDSKDSTYSLSSTLTLSKADYEKHKVYACEVTHQGLSSPVTKSFNRGEC
124 % of control GpH7-B3/GpL16-k0 (=100)	–	–	GpH7-B3 variant K334_16H/GpL16-k0 (Ho Ab) (antibody, human IgG1, kappa, Anti-glypican-3 IgG1; mutation in both H chains; also called K334H homodimerized antibody) heavy: not shown light: DIVMTQSPLSLPVTPGEPASISCQASESLVHSNRNTYLHWYLQKPGQSPQLLIYKVSNRFSGVPDRFSGSGSGTDFTLKISRVEAEDVGVYYCSQNTHVPPTFGQGTKVEIERTVAAPSVFIFPPSDEQLKSGTASVVCLLNNFYPREAKVQWKVDNALQSGNSQESVTEQDSKDSTYSLSSTLTLSKADYEKHKVYACEVTHQGLSSPVTKSFNRGEC
–	104 % of control	92.2 % of control	GpH7-A5/GpH7-B3 variant Y296_16H/GpL16-k0 (antibody, human IgG1, kappa, Heterodimerized IgG1; mutation in the GpH7-B3 chain only; also called He Ab) heavy 1: not shown heavy 2: not shown light: DIVMTQSPLSLPVTPGEPASISCQASESLVHSNRNTYLHWYLQKPGQSPQLLIYKVSNRFSGVPDRFSGSGSGTDFTLKISRVEAEDVGVYYCSQNTHVPPTFGQGTKVEIERTVAAPSVFIFPPSDEQLKSGTASVVCLLNNFYPREAKVQWKVDNALQSGNSQESVTEQDSKDSTYSLSSTLTLSKADYEKHKVYACEVTHQGLSSPVTKSFNRGEC
126 % of control GpH7-B3/GpL16-k0 (=100)	–	–	GpH7-B3 variant K334_15Y/GpL16-k0 (Ho Ab) (antibody, human IgG1, kappa, Anti-glypican-3 IgG1; mutation in both H chains; also called K334Y homodimerized antibody) heavy: not shown light: DIVMTQSPLSLPVTPGEPASISCQASESLVHSNRNTYLHWYLQKPGQSPQLLIYKVSNRFSGVPDRFSGSGSGTDFTLKISRVEAEDVGVYYCSQNTHVPPTFGQGTKVEIERTVAAPSVFIFPPSDEQLKSGTASVVCLLNNFYPREAKVQWKVDNALQSGNSQESVTEQDSKDSTYSLSSTLTLSKADYEKHKVYACEVTHQGLSSPVTKSFNRGEC
–	104 % of control	98.9 % of control	GpH7-A5/GpH7-B3 variant Y296_09D/GpL16-k0 (antibody, human IgG1, kappa, Heterodimerized IgG1; mutation in the GpH7-B3 chain only; also called He Ab) heavy 1: not shown heavy 2: not shown light: DIVMTQSPLSLPVTPGEPASISCQASESLVHSNRNTYLHWYLQKPGQSPQLLIYKVSNRFSGVPDRFSGSGSGTDFTLKISRVEAEDVGVYYCSQNTHVPPTFGQGTKVEIERTVAAPSVFIFPPSDEQLKSGTASVVCLLNNFYPREAKVQWKVDNALQSGNSQESVTEQDSKDSTYSLSSTLTLSKADYEKHKVYACEVTHQGLSSPVTKSFNRGEC
–	101 % of control	94 % of control	GpH7-A5/GpH7-B3 variant T335_02A/GpL16-k0 (antibody, human IgG1, kappa, Heterodimerized IgG1; mutation in the GpH7-B3 chain only; also called He Ab) heavy 1: not shown heavy 2: not shown light: DIVMTQSPLSLPVTPGEPASISCQASESLVHSNRNTYLHWYLQKPGQSPQLLIYKVSNRFSGVPDRFSGSGSGTDFTLKISRVEAEDVGVYYCSQNTHVPPTFGQGTKVEIERTVAAPSVFIFPPSDEQLKSGTASVVCLLNNFYPREAKVQWKVDNALQSGNSQESVTEQDSKDSTYSLSSTLTLSKADYEKHKVYACEVTHQGLSSPVTKSFNRGEC
–	108 % of control	99.9 % of control	GpH7-A5/GpH7-B3 variant T335_05P/GpL16-k0 (antibody, human IgG1, kappa, Heterodimerized IgG1; mutation in the GpH7-B3 chain only; also called He Ab) heavy 1: not shown heavy 2: not shown light: DIVMTQSPLSLPVTPGEPASISCQASESLVHSNRNTYLHWYLQKPGQSPQLLIYKVSNRFSGVPDRFSGSGSGTDFTLKISRVEAEDVGVYYCSQNTHVPPTFGQGTKVEIERTVAAPSVFIFPPSDEQLKSGTASVVCLLNNFYPREAKVQWKVDNALQSGNSQESVTEQDSKDSTYSLSSTLTLSKADYEKHKVYACEVTHQGLSSPVTKSFNRGEC
–	104 % of control	91.5 % of control	GpH7-A5/GpH7-B3 variant Y296_18N/GpL16-k0 (antibody, human IgG1, kappa, Heterodimerized IgG1; mutation in the GpH7-B3 chain only; also called He Ab) heavy 1: not shown heavy 2: not shown light: DIVMTQSPLSLPVTPGEPASISCQASESLVHSNRNTYLHWYLQKPGQSPQLLIYKVSNRFSGVPDRFSGSGSGTDFTLKISRVEAEDVGVYYCSQNTHVPPTFGQGTKVEIERTVAAPSVFIFPPSDEQLKSGTASVVCLLNNFYPREAKVQWKVDNALQSGNSQESVTEQDSKDSTYSLSSTLTLSKADYEKHKVYACEVTHQGLSSPVTKSFNRGEC
241 % of control GpH7-B3/GpL16-k0 (=100)	–	–	GpH7-B3 variant L328_04F/GpL16-k0 (Ho Ab) (antibody, human IgG1, kappa, Anti-glypican-3 IgG1; mutation in both H chains; also called L328F homodimerized antibody) heavy: not shown light: DIVMTQSPLSLPVTPGEPASISCQASESLVHSNRNTYLHWYLQKPGQSPQLLIYKVSNRFSGVPDRFSGSGSGTDFTLKISRVEAEDVGVYYCSQNTHVPPTFGQGTKVEIERTVAAPSVFIFPPSDEQLKSGTASVVCLLNNFYPREAKVQWKVDNALQSGNSQESVTEQDSKDSTYSLSSTLTLSKADYEKHKVYACEVTHQGLSSPVTKSFNRGEC
